Test results taken from PMC5797146.
Where “and” joins values, the source holds several entries; their conditions need not be identical. Equal values may be shown once.

Tests used:
[1] = biological target: Clostridium difficile toxin A (Clostridium difficile) (UniProt P16154); assay: SPR
[2] = biological target: Clostridium difficile toxin A (Clostridium difficile) (UniProt P16154)

B1: A26.8 VHH (parent) (VHH)
VHH: QVKLEESGGGLVQAGGSLRLSCAASERTFSRYPVAWFRQAPGAEREFVAVISSTGTSTYYADSVKGRFTISRDNAKVTVYLQMNNLKREDTAVYFCAVNSQRTRLQDPNEYDYWGQGTQVTVSS
Work on B1 yielded a Kd [1] of 18.7 nM, a koff [1] of 0.034 s⁻¹ and a kon [1] of 1.8e+06 M⁻¹ s⁻¹. For the same binder, the other [2] was 70 nM and 60%.
